Measurements reported in publication PMC6463701.

target: Cys820 (UniProt position 843, PTSHTCFNVLL); assay: chemical modification (stopped-flow kinetics, UV-vis); settings: 10 °C; 100 mM NaCl; 20 mM sodium acetate, 20 mM sodium phosphate, 20 mM Tris or 20 mM CAPSO (depending on pH); 1 mM EDTA; isolated C-lobe, free (no ubiquitin), reduced thiol, folded

Chain of E6AP HECT domain (residues 495-852), wild type (Q05086 518-875): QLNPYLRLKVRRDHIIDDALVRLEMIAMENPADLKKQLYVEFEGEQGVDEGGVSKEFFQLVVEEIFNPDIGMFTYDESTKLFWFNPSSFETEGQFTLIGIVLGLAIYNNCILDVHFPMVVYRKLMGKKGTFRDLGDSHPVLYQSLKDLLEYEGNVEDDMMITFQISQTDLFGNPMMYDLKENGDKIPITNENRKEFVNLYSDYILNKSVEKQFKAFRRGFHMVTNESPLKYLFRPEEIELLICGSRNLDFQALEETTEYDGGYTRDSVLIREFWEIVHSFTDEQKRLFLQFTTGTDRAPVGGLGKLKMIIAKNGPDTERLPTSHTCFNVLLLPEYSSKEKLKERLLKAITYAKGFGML
Chain of E6AP N-lobe (isolated) (Q05086 518-875): as above
Chain of E6AP C-lobe (residues 741-852) (Q05086 764-875): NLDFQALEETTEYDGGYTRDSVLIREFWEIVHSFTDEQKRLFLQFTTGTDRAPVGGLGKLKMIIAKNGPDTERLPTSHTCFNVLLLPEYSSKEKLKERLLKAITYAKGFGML

Point of comparison: “E6AP (UBE3A) HECT domain C-lobe, wild type (Homo sapiens)”, pKa 8.7 ± 0.1. Against it:
- E6AP (UBE3A) HECT domain C-lobe, Delta4 variant (Homo sapiens; del849-852) — the same, 8.7 ± 0.1

target: fluorophore-labeled ubiquitin G76C (BODIPY TMR C5-maleimide); assay: fluorescence polarisation; 50 nM BODIPY TMR-labelled ubiquitin G76C, E6AP construct titrated (C-lobe 0-500 μM); room temperature; 20 mM HEPES pH 7.2, 200 mM NaCl, 1 mM TCEP, 0.01% Triton X-100; single-site binding model; apparent KD; settings: not given

Point of comparison: “E6AP HECT domain I564D/F583D (from UniProt Q05086-2 495-852) (domain or fragment)”, Kd 110 µM. Against it:
- E6AP C-lobe (residues 741-852) (from UniProt Q05086-2 741-852) (domain or fragment) — 3.6-fold higher, 400 µM
- E6AP HECT domain (residues 495-852), wild type (from UniProt Q05086-2 495-852) (domain or fragment) — within 1.5-fold, 83 µM
- E6AP HECT domain F665D (from UniProt Q05086-2 495-852) (domain or fragment) — within 1.5-fold, 120 µM
- E6AP N-lobe (isolated) (from UniProt Q05086-2 495-852) (domain or fragment) — 1.6-fold lower, 70 µM
